Experimental findings from PMC6548132, “Engineered SUMO/protease system identifies Pdr6 as a bidirectional nuclear transport receptor” (The Journal of Cell Biology, 2019) are described below.

The test has as its target T1, recombinant Pdr6 (S. cerevisiae, UniProt P32767 1-1081).
T1 construct: Pdr6/Kap122, S. cerevisiae; also called Kap122; source: E. coli NEB express, purified (Ni2+ chelate beads)
T1 sequence (looked up): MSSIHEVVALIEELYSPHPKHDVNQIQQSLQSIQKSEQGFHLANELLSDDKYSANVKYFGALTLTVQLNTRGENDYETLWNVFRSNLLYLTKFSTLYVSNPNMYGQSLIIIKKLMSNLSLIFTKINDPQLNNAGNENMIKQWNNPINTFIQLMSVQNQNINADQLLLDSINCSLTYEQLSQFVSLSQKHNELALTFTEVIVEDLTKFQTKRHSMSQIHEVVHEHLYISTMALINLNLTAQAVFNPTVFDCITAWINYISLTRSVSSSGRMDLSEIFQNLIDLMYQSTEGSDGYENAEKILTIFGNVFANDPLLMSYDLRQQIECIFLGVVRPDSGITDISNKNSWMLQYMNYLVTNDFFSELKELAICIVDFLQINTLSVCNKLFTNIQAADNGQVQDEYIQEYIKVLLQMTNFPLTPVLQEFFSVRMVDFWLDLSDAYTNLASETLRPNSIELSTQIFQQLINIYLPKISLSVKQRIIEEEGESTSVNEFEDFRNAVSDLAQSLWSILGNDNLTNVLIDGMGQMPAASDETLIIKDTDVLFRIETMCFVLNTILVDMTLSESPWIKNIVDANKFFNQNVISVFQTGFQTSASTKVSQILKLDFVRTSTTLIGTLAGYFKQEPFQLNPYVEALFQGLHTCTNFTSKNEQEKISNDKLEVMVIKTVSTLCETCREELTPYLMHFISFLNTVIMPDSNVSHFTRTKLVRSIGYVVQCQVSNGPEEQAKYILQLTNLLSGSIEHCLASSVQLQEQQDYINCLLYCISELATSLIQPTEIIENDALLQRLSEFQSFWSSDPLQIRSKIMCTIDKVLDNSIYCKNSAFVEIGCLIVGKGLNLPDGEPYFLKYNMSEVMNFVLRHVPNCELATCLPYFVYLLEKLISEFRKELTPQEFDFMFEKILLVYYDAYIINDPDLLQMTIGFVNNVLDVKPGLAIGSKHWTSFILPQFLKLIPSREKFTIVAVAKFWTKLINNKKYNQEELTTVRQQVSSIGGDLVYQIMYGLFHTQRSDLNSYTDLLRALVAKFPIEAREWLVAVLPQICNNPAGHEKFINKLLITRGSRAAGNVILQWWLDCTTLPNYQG
The test is described as follows: pull-down; 1.5 µM H14-ZZ-NEDD8-Ubc9 as bait, 3 µM recombinant Pdr6, with or without 3 µM RanGTP and 3 µM eIF5A; anti-ZZ/ED affibody matrix, elution by NEDP1 tag cleavage; 1 h at 4°, 45 mM Tris/HCl pH 7.5, 100 mM NaCl, 2 mM MgCl2, 5 mM DTT; SDS-PAGE/Coomassie. Particulars: both partners purified.

B1: H14-ZZ-NEDD8–tagged Ubc9 (enzyme, yeast (S. cerevisiae), UniProt P50623 1-157, looked up)
chain: MSSLCLQRLQEERKKWRKDHPFGFYAKPVKKADGSMDLQKWEAGIPGKEGTNWAGGVYPITVEYPNEYPSKPPKVKFPAGFYHPNVYPSGTICLSILNEDQDWRPAITLKQIVLGVQDLLDSPNPNSPAQEPAWRSFSRNKAEYDKKVLLQAKQYSK
notes: Ubc9, SUMO-conjugating E2 enzyme of yeast; Tag is cut by NEDP1 only at elution; also called immobilized Ubc9; source: E. coli NEB express, purified (Ni2+ chelate beads)
Regarding B1, the binding result is recorded as “binds”.
